Laboratory results from the DeepSol protein solubility set.

Experiment: soluble on expression in E. coli; label from the status in PepcDB or PDB records

Sequence | soluble on expression in E. coli
MGSDKIHHHHHHMQNLSPTQREILLALTDLYNRQKRMIKSKEVADIIGKDEGTVRNIILSLKVLGLVESKPGPNGGYMPTLKAYEIINNPTLTPILDKLNLYKGMIETDIKVENIEIIDITNPSANRVLLKVEGDLRKLKIGDAVRLGPTPYSRLVIEGLILHLDENSKEIVVDVKRMISIPKEKVKNLISKKLIALKPETSLREASMIFYKEAIRGAPVINQDEKVVGILTTADIIKAFFEGNYTAKVSDYMKTNVISINENEDLLDAIRKMIIYNVGRLLVLDSNNKAVGIVTRTDILRSIAGLEGLWTT | not soluble
MGSDKIHHHHHHMTLDAVLTQIDTDLDAAMARLMALLRVPSISTDPAFDADVARAAQILCDDLTGLGFDASVRETTGHPMVVAHGDDTGPHVLFYGHYDVQPVDPLDLWDRDPFDPIIEEQNGKKVIRARGASDDKGQLMTFIEACRAWKAVTGKLPAKVTIFLEGEEESGSPSLVPFMEAHKDELTAEVALICDTGLFAEGVPAIVTQLRGMLQEEITVTGPRIDLHSGMFGGIAMNPIRVLSGVLAGLHDANGSVTVPGFYEGVPDISDDLRASWDALGFVPEAFLGPVGLSHPAGEAGRSGLEMIWSRPTAEVNGVWGGYTGAGFKTVLPSQAHAKISFRLVAGQDPDRLHENFVDWVTAQMPPDCTVSITQIAGSRASQMDTSHPIFETTRQALSDEWPNEAAYIGCGGSIPVAGHFKTILGMDSVLAGFGKDDDAIHSPNEKYDVESFHRGIRSWARVLGGLSEV | not soluble
MKVMNIIHDSVVDGEGLRTVVFFAGCPHRCFGCHNPKSWNICNGTEMTVEEIVKEIASNPLTDVTFSGGDPFFQAAEVKKVAKAVKDLKKNLWMYTGYTLEEIQSSQNNDMIELLHYGDVLVDGRFEIGKKDLTLPFRGSSNQRIIRLKELEHHHHHH | soluble
SISPAQIAEALQGRGWDAEIVTDASMAGQLVDVRPEGILKCVDGRGSDNTRMGGPKMPGGIYAIAHNRGVTSIEGLKQITKEVASKGHLPSVHGDHSSDMLGCGFFKLWVTGRFDDMGYPRPQFDADQGANAVKDAGGIIEMHHGSHTEKVVYINLLANKTLEPNENDQRFIVDGWAADKFGLDVPKFLIAAAATVEMLGGPKNAKIVVP | soluble
MSLEHAAEILANRYVRGDALTNPDATKEYVRCKLGSYEREVFALLLLDNQNRLIEFKELFQGTVDAASVYPREVVKAVLEVNAAAVIFAHNHPSGDSTPSQADRRITERLKDTLALVDVRVLDHIVTGDTCTSFAERGWLEGHHHHHH | not soluble
MSTEPQFENPFIDRQLDGSKIHEISGHRFKATALVQPTCCAICSKLIYGLGKQGYRCLGCETVVHKRCHSLINDRCNFGPSSPRQPPPQELSSDSGELRHRIPSPTEPQVSTNHHFNKHFYTRPTFCDHCGSLLYGLSKQGVQCSDCLANVHHRCKEKAVHNCIVSSQ | not soluble
MIYIIGSGIAGLSAGVALRRAGKKVTLISKRIDGGSTPIAKGGVAASVGSDDSPELHAQDTIRVGDGLCDVKTVNYVTSEAKNVIETFESWGFEFEEDLRLEGGHTKRRVLHRTDETGREIFNFLLKLAREEGIPIIEDRLVEIRVKDGKVTGFVTEKRGLVEDVDKLVLATGGYSYLYEYSSTQSTNIGDGMAIAFKAGTILADMEFVQFHPTVTSLDGEVFLLTETLRGEGAQIINENGERFLFNYDKRGELAPRDILSRAIYIEMLKGHKVFIDLSKIEDFERKFPVVAKYLARHGHNYKVKIPIFPAAHFVDGGIRVNIRGESNIVNLYAIGEVSDSGLHGANRLASNSLLEGLVFGINLPRYVDSSWEGISTDDGIVHSVRISGNKTLSLKEIRRINWENVGIIRNEEKLVKAINTYSSSTQNEAIISYLTALAAEIRKESRGNHFREDYPYKDPNWEKRIYFKLVV | soluble
AIALPADGIVCFPGQTWEKVLSKVKKAVVFMDDRCSESLHWNGGAALLFEAGARNIKQFSSFEAGAQNEPKAVFVVSTVLKGRTADIIKDIISLSHFQYCVVFTTVPHSIHLLANNVNADLEGNPVFEQFEEKLCEWMGDMNYTAEVMHAPVVFAPLTEHLHLLPAFSNLFPLLDVDLESINEKRPEKKRFGSLMDMDVHSLPPGLQIQIKTLALTLNGLFEFISTREESFSVGPMSRLIATELANLPQAKNRRKTAPNKASVVFVDRTLDLTGAVGHHGDNLAEKILSVLPQLPGHVTDVQVDMLELTHLKPTTDTKGILAPGCLAQNQSATAKLLWETMLVAKQKEAVIEVRRQLVEAASKENLPIKMSLGRVTAEQLCSYVQLFRDSWGALESHSGVLQLGLAAAQALRHPALQRWDACLAFERLLLQALGDSDLAGVLKQLLPLIKSSESGTGSDLSMDDLLVLLVYVYSVAKEACSGGSEEEKQVEKVEQELIGALTLRLTRETTLSPLVQEVTGVSCPEELTMECAHSVLESMFGTLRGVARARDHLKNFSSVFTPGDGAHQDQHRYILILMIQDQHQ | soluble
MGSDKIHHHHHHMSLPAMDAGIYLEETAPRALIEHNNILDNSVGVYLHGSADAMVRENKIVGDATLRVNERGNGVTVWNAPGAQVVGNDISKGRDGIFSNTSTHNTYKNNRFSDLRFAVHYMYTNDSEISGNISVGNNMGYVLMFSERLKVFDNIAVGSRDQGIMLNYVNYSDIHDNIINKAGKCVFAYNANYDKLSANHFENCQIGIHFTAAIEGTSLHDNSFINNESQVKYVSTRFLDWSEGGHGNYWSDNSAFDLNGDGFGDSAYRPNGIIDQIIWRAPVSRLLMNSPAISIVKWAQAQFPAVLPGGVVDSKPLMKPYAPKIQTRYQAMKDGLLKKVETRQLEWGRAENGSLN | not soluble
LFSCIISSIETTKYVGISGVNKSVIDYTPAADMELVTIGESLSLKHPPIDATGCPSPATITRAAVDLLKIPIMTIDAGSYVKPKIPYISVDQRPTGDIQKGLGMDNSKELLNLGKIIGNNNIYDSLVIGESVPGGTTTALGVLLGLGYDARDKISSGSVENPKDLKLSVVENGLKTCKSEDVFDVLNAVGDKMMPVVAGMTISAVSKGK | not soluble
MVEISKRIISTFGKTNAHFKLITENDRVLVGLSGGKDSLLLATLLARLARHAPFKFEFKALTVDYGIGEDFSYLQNYCAENGIPHEVFKTNIMEVMQEKRRENSSYCSFCSRLRRGALYSKALEGGYNKLALGHHLDDAAESFFMNFSYNGAIRSMPPIYRAYNGLWVIRPLIWLRERQMVDFVLKNNLQTPLCNC | not soluble
MLLSLYIPPGRPIPDVLNLLRQEYSIAQNIKLKRTRDAVTSAIQSAIDRLTQIPKVPDNGLVIFCGENFETEESKCFVFSPPEKVTIFFYRTDKYFHTEFLEDMIEENDVFGLIIVERDYATIGILKGTRIEVLDEFEGFVPGKHMMGGQSQRRIDRIIEEMYANFLKEVGEKANSYLLPYLESGKLKGILLGGPGYAKKDFYDGDYLDYRLKKLVLLPLIDIPDQGDAGLKELVMKAQDILKNQKYVQVQNLLEELKYHIAKDDGLVVYGIEEIRKALHMGAVDSLVIYDEPNSELEKLSQEAENYGTKVYVVGDELPDAEWVKKTFGGAIGKLRYKIY | soluble
MGSDKIHHHHHHMSKSHAVVHSALADEASQHNNTLSWFDITPADQERVRSLAPIADHVGEEIIADFYAHILRFEDAAQQFADDTQIERVKRGQKKYFQELINAELDESYAEERKRIGGIHERAGITPTLYVGSYAYYLQRLSQSILENGKEDPHKLFGLVLSMMKIAHYDMALALETYVEAREKTIEIHERQMRELPTPVLELREGLLLVPVVGALDSHRARTLTMQLLDGIRDTRSRAVVLDITGAVSIDSSVANHLFQAMTAARLMGAKSILAGISPTVAQELFRIGVDTKTFTTARNLQQGIELAASALEAHSKHSV | not soluble
MGSDKIHHHHHHMIDSMTHRKLSKTAQPLSPTRPWHSTKATCYSAMLSTWSLSQKRLSISALILAITSTATWANEVKNQDIQAASKSNTCYVEGVSDRLNCGFVTVPENPNKPDGKQIQVHYVVLPAVKNANHEEALLAIAGGPGQSAIDNAAGFDAMLSKVRQQRDILLIDQRGTGRSNLLTCDESANPLSLDDDSIDPSAETQKCLDKIDADVSQYGSLNAVKDFEAVRAHLGYKKLHIYGISYGTRMAQLYMRLYPEQLATVTLDGVVPMQQSVLEIGSAIDRGFELLFKDCQENTVCKQQFPQLKAEFEQVANTLAKGAITENVFDPVTGEKNQLIITRGKFYGAIRMALYQTNVRALVPHAIHQAANNHFQPLLGLYALTVDNAGIAMGMHTSVVCGEDIHRITPAMREKAASSYVGQTMLDSMEKTCAIWKVPAVDNSFSEPISSNIPTLLLSGEIDPATPPSWGELAMEKLTNAKHFIAPYATHGVAYQSCANGLVADLVRTGSINDLDGECLNKDVRRSFYLNASSVEPLNATSTKTTTTNNNASTGAKE | not soluble
SESVHPGNHNLDTLSHSQISKEEETFPSHQLYTFQAPWLVYGLAWCNRVNSPYSLALSSFIESCNNKIILVELNDKTEDFQQVVQVDHPYPASKVAFIPDYSGTRPQLLATSGDALRIWEWSNDNLKSKALLSTNPESEYCAPLTSFDWCEVNPATLCTSSVDTTCTIWDVETQQAKTQLIAHDKEVYDVAFQTGTDKIFASAGADASVRCFDLRNLETSTILYEIPDDSTPILRIGWNKKEPNYMAALVMDSSKFLLLDIRVPSLPVAEMEHKLTNHKRHKSVNAIHWAPHSSSHICSAGDDCYTLIWDISAIPRPIEEPILSYQSDREVNNLQWSAADPDWIAIAAGNKMQILRV | soluble
MSKEIAKKRIEELRDLLNTFNYQYHVLDNPSVSDAEYDRNMQELIKLEAENPEFMSEDSPSIRVGGTVLDIFEKVTHKSPMLSLGNAFNEGDLRDFDRRVRQGIDDANVRYICELKIDGLAVSLHYEKGRFIQGATRGDGVTGEDITQNLKTIKAIPLRLNEEVTLEARGEAYMPKRSFVKLNEEKEQNGEDVFANPRNAAAGSIRQLDPKIAAKRNLSMFVYGLANVEEKTIPSHSESLDYLGELGFKTNPNRRTCETIEEVIAYVEEWQEKRPHLDYEIDGIVIKVDDVALQESLGTTAKSPRWAIAYKFPAEEVVTRLTGIELSVGRTGVVTPTAELEPVRVAGTIVRRASLHNEDLIREKDIRIGDYVVVKKAGDIIPEVVNVIFDKRTGGEEEYHMPTHCPACESELVRLEEEVALRCINPTCPAQIREGLIHFVSRNAMNIDGLGERVITQLFDADYIRTFADLYSLTKEQLLQLERFGEKSATNLVQAIENSKENSLERLLFGLGIRHVGAKAARTFAEHFETMDALVKATEEELKAINEIGEKMAQSVVAYFDNEDVLELLQQFKEYGVNMTYKGIKIADLQNVESYFAGKTVVLTGKLEVMGRSEAKKKIEALGGKVTGSVSKSTDLVVAGEAAGSKLAQAEKHNVEVWNEERFLQELNK | soluble
MQSQWCARQQDMIAVYGALAEQCDYALHLGLTEAGMGSKGIVASTAALAVLLFKGIGDTIRVSLTPEPGGDRAREVIVAQEILQTMGLRAFVPLVAACPGCGRTTSTYFQELAESIQIYVREQMVIWREQYEGVENMSLAVMGCVVNGPGESKHADIGISLPGSGETPVAPVFVDGQKTVTLKGDNIAGEFRMIVDEYVRTKYRKKAANALEHHHHHH | not soluble
